From paper PMC2199204 (The Journal of Cell Biology, 2001)

Target: T1, endogenous RasGRP (human (endogenous in A172), UniProt O95267 1-797)
T1 sequence (looked up): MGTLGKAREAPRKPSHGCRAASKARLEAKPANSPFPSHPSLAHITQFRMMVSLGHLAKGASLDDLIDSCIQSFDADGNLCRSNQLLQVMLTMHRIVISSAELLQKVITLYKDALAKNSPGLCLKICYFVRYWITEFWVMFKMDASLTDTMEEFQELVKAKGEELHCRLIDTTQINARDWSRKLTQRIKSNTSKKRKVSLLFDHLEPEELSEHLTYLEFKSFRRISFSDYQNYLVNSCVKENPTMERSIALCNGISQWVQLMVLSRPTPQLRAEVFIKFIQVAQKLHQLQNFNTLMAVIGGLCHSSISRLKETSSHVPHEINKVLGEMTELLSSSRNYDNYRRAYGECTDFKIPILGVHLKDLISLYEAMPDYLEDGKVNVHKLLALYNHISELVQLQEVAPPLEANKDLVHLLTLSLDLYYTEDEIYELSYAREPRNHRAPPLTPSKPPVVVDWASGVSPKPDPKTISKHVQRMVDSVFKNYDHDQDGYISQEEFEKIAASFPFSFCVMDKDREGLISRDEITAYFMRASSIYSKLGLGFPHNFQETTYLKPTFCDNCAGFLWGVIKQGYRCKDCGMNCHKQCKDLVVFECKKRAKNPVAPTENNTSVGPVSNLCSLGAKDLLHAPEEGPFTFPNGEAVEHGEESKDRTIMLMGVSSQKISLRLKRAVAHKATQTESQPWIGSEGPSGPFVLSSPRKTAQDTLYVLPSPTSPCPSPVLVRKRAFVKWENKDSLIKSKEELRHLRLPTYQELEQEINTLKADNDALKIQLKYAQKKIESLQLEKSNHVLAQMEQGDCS
Assay: co-IP

B1: endogenous DGKζ (enzyme)
chain: not shown
- fold associated DGK activity, PMA-treated over untreated cells: 1.9 fold
